Assay results reported in IntAct's records for PubMed 24879152.

B1: Next to BRCA1 gene 1 protein (Homo sapiens), Q14596 (parent)
chain: MEPQVTLNVTFKNEIQSFLVSDPENTTWADIEAMVKVSFDLNTIQIKYLDEENEEVSINSQGEYEEALKMAVKQGNQLQMQVHEGHHVVDEAPPPVVGAKRLAARAGKKPLAHYSSLVRVLGSDMKTPEDPAVQSFPLVPCDTDQPQDKPPDWFTSYLETFREQVVNETVEKLEQKLHEKLVLQNPSLGSCPSEVSMPTSEETLFLPENQFSWHIACNNCQRRIVGVRYQCSLCPSYNICEDCEAGPYGHDTNHVLLKLRRPVVGSSEPFCHSKYSTPRLPAALEQVRLQKQVDKNFLKAEKQRLRAEKKQRKAEVKELKKQLKLHRKIHLWNSIHGLQSPKSPLGRPESLLQSNTLMLPLQPCTSVMPMLSAAFVDENLPDGTHLQPGTKFIKHWRMKNTGNVKWSADTKLKFMWGNLTLASTEKKDVLVPCLKAGHVGVVSVEFIAPALEGTYTSHWRLSHKGQQFGPRVWCSIIVDPFPSEESPDNIEKGMISSSKTDDLTCQQEETFLLAKEERQLGEVTEQTEGTAACIPQKAKNVASERELYIPSVDLLTAQDLLSFELLDINIVQELERVPHNTPVDVTPCMSPLPHDSPLIEKPGLGQIEEENEGAGFKALPDSMVSVKRKAENIASVEEAEEDLSGTQFVCETVIRSLTLDAAPDHNPPCRQKSLQMTFALPEGPLGNEKEEIIHIAEEEAVMEEEEDEEDEEEEDELKDEVQSQSSASSEDYIIILPECFDTSRPLGDSMYSSALSQPGLERGAEGKPGVEAGQEPAEAGERLPGGENQPQEHSISDILTTSQTLETVPLIPEVVELPPSLPRSSPCVHHHGSPGVDLPVTIPEVSSVPDQIRGEPRGSSGLVNSRQKSYDHSRHHHGSSIAGGLVKGALSVAASAYKALFAGPPVTAQPIISEDQTAALMAHLFEMGFCDRQLNLRLLKKHNYNILQVVTELLQLNNNDWYSQRY
B2: Glycogen synthase kinase-3 alpha (Homo sapiens), P49840 (parent)
chain: MSGGGPSGGGPGGSGRARTSSFAEPGGGGGGGGGGPGGSASGPGGTGGGKASVGAMGGGVGASSSGGGPGGSGGGGSGGPGAGTSFPPPGVKLGRDSGKVTTVVATLGQGPERSQEVAYTDIKVIGNGSFGVVYQARLAETRELVAIKKVLQDKRFKNRELQIMRKLDHCNIVRLRYFFYSSGEKKDELYLNLVLEYVPETVYRVARHFTKAKLTIPILYVKVYMYQLFRSLAYIHSQGVCHRDIKPQNLLVDPDTAVLKLCDFGSAKQLVRGEPNVSYICSRYYRAPELIFGATDYTSSIDVWSAGCVLAELLLGQPIFPGDSGVDQLVEIIKVLGTPTREQIREMNPNYTEFKFPQIKAHPWTKVFKSRTPPEAIALCSSLLEYTPSSRLSPLEACAHSFFDELRCLGTQLPNNRPLPPLFNFSAGELSIQPSLNAILIPPHLRSPAGTTTLTPSSQALTETPTSSDWQSTDATPTLTNSS
partner: B1 chain

Variants of: B1
Settings: with gsk3a_human GSK3A

Variant	effect of a mutation on the interaction
S590A	with no effect
T581A;T586A;S590A	decreasing interaction strength
T586A;S590A	with no effect
T581A	decreasing interaction strength
T586A	with no effect

Variants of: B1
Settings: with ubc_human UBC

Variant	effect of a mutation on the interaction
T586E;S590E	with no effect
T586A;S590A	with no effect

Variants of: B1
Settings: with mlp3b_human MAP1LC3B

Variant	effect of a mutation on the interaction
T586E;S590E	with no effect
T586A;S590A	with no effect

Variants of: B1
Settings: with gbrap_human GABARAP

Variant	effect of a mutation on the interaction
T586E;S590E	with no effect
T586A;S590A	with no effect

Variants of: B1
Settings: with mlp3b_mouse Map1lc3b

Variant	effect of a mutation on the interaction
T586E;S590E	with no effect
T586A;S590A	with no effect

Variants of: B1
Settings: with gsk3b_human GSK3B

Variant	effect of a mutation on the interaction
T581A;T586A;S590A	disrupting interaction strength
T581A	with no effect

Variants of: B2
Settings: with nbr1_human NBR1, Q14596

Variant	effect of a mutation on the interaction
S21A	with no effect
K148A	disrupting interaction strength
